Test results published in US20250206828A1, “ANTI-ADENOSINE RECEPTOR (A2aR) ANTIBODIES AND THE USE THEREOF” (Adept Therapeutics Inc., priority 2022, published 2025).

B1: Hu3F6-H1/Hu3F6-L3 (antibody, human IgG1, V domains shown)
VH: QVQLVQSGAEVKKPGASVKVSCKASGFAFTSYWMNWVRQAPGQGLEWMGRIDPSDSEAHYHHKFWGRVTMTRDTSTSTVYMELSSLRSEDTAVYYCLRSLYGKGDYWGHGTTVTVSS
VL: DVVMTQSPLSLPVTLGQPASISCRSSQSLVHRNGNTYLEWYQQRPGQSPRLLIYKVSNRFSGVPDRFSGSGSGTDFTLKISRVEAEDVGVYYCYQGSHVPLTFGGGTKVEIK
notes: Human IgG1 FES (L234F, L235E, P331S) and human Ig kappa constant domains
B2: Hu3F6-H2/Hu3F6-L1 (antibody, human IgG1, V domains shown)
VH: EVQLVQSGAEVKKPGASVKVSCKTSGFAFTSYWMNWVRQAPGQGLEWMGRIDPSDSEAHYHHKFWGRVTMTVDTSTSTVYMELSSLRSEDTAVYYCLRSLYGKGDYWGHGTTVTVSS
VL: DVVMTQSPLSLPVTLGQPASISCRSSQSLVHRNGNTYLEWFQQRPGQSPRRLIYKVSNRFSGVPDRFSGSGSGTDFTLKISRVEAEDVGVYYCYQGSHVPLTFGGGTKVEIK
notes: as for B1
B3: Hu3F6-H6/Hu3F6-L8 (antibody, human IgG1, V domains shown)
VH: EVQLVQSGAEVKKPGESLRISCKASGFAFTSYWMNWVRQMPGKGLEWIGRIDPSDSEAHYHHKFWGHATLSVDKSSSTVYLQWSSLKASDTAMYYCLRSLYGKGDYWGHGTTVTVSS
VL: DVVMTQSPLSLPVTPGEPASISCRSSQSLVHRNGNTYLEWYLQKPGQSPQLLIYKVSNRFSGVPDRFSGSGSGTDFTLKISRVEAEDVGVYYCYQGSHVPLTFGGGTKVEIK
notes: as for B1
B4: Hu3F6-H6/Hu3F6-L7 (antibody, human IgG1, V domains shown)
VH: EVQLVQSGAEVKKPGESLRISCKASGFAFTSYWMNWVRQMPGKGLEWIGRIDPSDSEAHYHHKFWGHATLSVDKSSSTVYLQWSSLKASDTAMYYCLRSLYGKGDYWGHGTTVTVSS
VL: DVVMTQTPPSLPVNPGEPASISCRSSQSLVHRNGNTYLEWYLQKPGQSPQLLIYKVSNRFSGVPDRFSGSGSGSDFTLKISWVEAEDVGVYYCYQGSHVPLTFGGGTKVEIK
notes: as for B1
B5: Hu3F6-H6/Hu3F6-L5 (antibody, human IgG1, V domains shown)
VH: EVQLVQSGAEVKKPGESLRISCKASGFAFTSYWMNWVRQMPGKGLEWIGRIDPSDSEAHYHHKFWGHATLSVDKSSSTVYLQWSSLKASDTAMYYCLRSLYGKGDYWGHGTTVTVSS
VL: DVVMTQTPLSLSVTPGQPASISCRSSQSLVHRNGNTYLEWYLQKPGQSPQLLIYKVSNRFSGVPDRFSGSGSGTDFTLKISRVEAEDVGVYYCYQGSHVPLTFGGGTKVEIK
notes: as for B1
B6: Hu3F6-H6/Hu3F6-L1 (antibody, human IgG1, V domains shown)
VH: EVQLVQSGAEVKKPGESLRISCKASGFAFTSYWMNWVRQMPGKGLEWIGRIDPSDSEAHYHHKFWGHATLSVDKSSSTVYLQWSSLKASDTAMYYCLRSLYGKGDYWGHGTTVTVSS
VL: DVVMTQSPLSLPVTLGQPASISCRSSQSLVHRNGNTYLEWFQQRPGQSPRRLIYKVSNRFSGVPDRFSGSGSGTDFTLKISRVEAEDVGVYYCYQGSHVPLTFGGGTKVEIK
notes: as for B1
B7: Hu3F6-H6/Hu3F6-L2 (antibody, human IgG1, V domains shown)
VH: EVQLVQSGAEVKKPGESLRISCKASGFAFTSYWMNWVRQMPGKGLEWIGRIDPSDSEAHYHHKFWGHATLSVDKSSSTVYLQWSSLKASDTAMYYCLRSLYGKGDYWGHGTTVTVSS
VL: DVVMTQSPLSLPVTLGQPASISCRSSQSLVHRNGNTYLEWYQQRPGQSPRRLIYKVSNRFSGVPDRFSGSGSGTDFTLKISRVEAEDVGVYYCYQGSHVPLTFGGGTKVEIK
notes: as for B1
B8: Hu3F6-H6/Hu3F6-L3 (antibody, human IgG1, V domains shown)
VH: EVQLVQSGAEVKKPGESLRISCKASGFAFTSYWMNWVRQMPGKGLEWIGRIDPSDSEAHYHHKFWGHATLSVDKSSSTVYLQWSSLKASDTAMYYCLRSLYGKGDYWGHGTTVTVSS
VL: DVVMTQSPLSLPVTLGQPASISCRSSQSLVHRNGNTYLEWYQQRPGQSPRLLIYKVSNRFSGVPDRFSGSGSGTDFTLKISRVEAEDVGVYYCYQGSHVPLTFGGGTKVEIK
notes: as for B1
B9: Hu3F6-H6/Hu3F6-L6 (antibody, human IgG1, V domains shown)
VH: EVQLVQSGAEVKKPGESLRISCKASGFAFTSYWMNWVRQMPGKGLEWIGRIDPSDSEAHYHHKFWGHATLSVDKSSSTVYLQWSSLKASDTAMYYCLRSLYGKGDYWGHGTTVTVSS
VL: DIVMTQTPPSLPVNPGEPASISCRSSQSLVHRNGNTYLEWYLQKPGQSPQLLIYKVSNRFSGVPDRFSGSGSGSDFTLKISWVEAEDVGVYYCYQGSHVPLTFGGGTKVEIK
notes: as for B1
B10: Hu3F6-H6/Hu3F6-L4 (antibody, human IgG1, V domains shown)
VH: EVQLVQSGAEVKKPGESLRISCKASGFAFTSYWMNWVRQMPGKGLEWIGRIDPSDSEAHYHHKFWGHATLSVDKSSSTVYLQWSSLKASDTAMYYCLRSLYGKGDYWGHGTTVTVSS
VL: DIVMTQTPLSLSVTPGQPASISCRSSQSLVHRNGNTYLEWYLQKPGQSPQLLIYKVSNRFSGVPDRFSGSGSGTDFTLKISRVEAEDVGVYYCYQGSHVPLTFGGGTKVEIK
notes: as for B1
B11: Hu3F6-H4/Hu3F6-L8 (antibody, human IgG1, V domains shown)
VH: EVQLVQSGAEVKKPGASVKVSCKTSGFAFTSYWMNWVRQAPGQGLEWIGRIDPSDSEAHYHHKFWGRATLTVDKSSSTVYMELSSLRSEDTAVYYCLRSLYGKGDYWGHGTTVTVSS
VL: DVVMTQSPLSLPVTPGEPASISCRSSQSLVHRNGNTYLEWYLQKPGQSPQLLIYKVSNRFSGVPDRFSGSGSGTDFTLKISRVEAEDVGVYYCYQGSHVPLTFGGGTKVEIK
notes: as for B1

Target: T1, human adenosine A2A receptor (A2aR) (human, UniProt P29274 1-412)
T1 construct: Assays used HEK293 cells stably overexpressing human A2aR (BPS Bioscience 79381), human A2aR-expressing CHO cells, or endogenous A2aR on human PBMC; also called human A2aR; hA2aR
Assay: flow cytometry, HEK293-hA2aR cells, supernatant 1 ug/ml

T1 sequence (P29274 whole entry): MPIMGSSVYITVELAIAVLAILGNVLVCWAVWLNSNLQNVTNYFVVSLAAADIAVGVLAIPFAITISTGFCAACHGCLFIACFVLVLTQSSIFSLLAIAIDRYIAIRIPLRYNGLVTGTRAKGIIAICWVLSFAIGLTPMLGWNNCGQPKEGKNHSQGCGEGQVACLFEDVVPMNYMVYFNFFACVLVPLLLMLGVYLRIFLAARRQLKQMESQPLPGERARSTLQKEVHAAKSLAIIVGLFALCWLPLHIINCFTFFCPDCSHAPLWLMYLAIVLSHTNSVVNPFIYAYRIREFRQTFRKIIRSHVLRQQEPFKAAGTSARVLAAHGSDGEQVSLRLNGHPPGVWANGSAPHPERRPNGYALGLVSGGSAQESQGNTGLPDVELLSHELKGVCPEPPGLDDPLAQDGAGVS

Going from B1 to B2, the MFI falls from 1600 MFI to 13 MFI.

Compared with B3, B4 is lower in MFI: 2000 MFI for the first, 1170 MFI for the second.

Going from B5 to B6, the MFI falls from 1980 MFI to 27 MFI.

First: B7
Second: B8
The MFI of the first is lower: 17 MFI for the first, 2090 MFI for the second.

Going from B9 to B10, the MFI rises from 979 MFI to 2000 MFI.

Work on B11 yielded an MFI of 1710 MFI.
